Publication PMC11335232

Molecular target: T1, CTCF recombinant full-length (OriGene) (UniProt P49711)
T1 sequence: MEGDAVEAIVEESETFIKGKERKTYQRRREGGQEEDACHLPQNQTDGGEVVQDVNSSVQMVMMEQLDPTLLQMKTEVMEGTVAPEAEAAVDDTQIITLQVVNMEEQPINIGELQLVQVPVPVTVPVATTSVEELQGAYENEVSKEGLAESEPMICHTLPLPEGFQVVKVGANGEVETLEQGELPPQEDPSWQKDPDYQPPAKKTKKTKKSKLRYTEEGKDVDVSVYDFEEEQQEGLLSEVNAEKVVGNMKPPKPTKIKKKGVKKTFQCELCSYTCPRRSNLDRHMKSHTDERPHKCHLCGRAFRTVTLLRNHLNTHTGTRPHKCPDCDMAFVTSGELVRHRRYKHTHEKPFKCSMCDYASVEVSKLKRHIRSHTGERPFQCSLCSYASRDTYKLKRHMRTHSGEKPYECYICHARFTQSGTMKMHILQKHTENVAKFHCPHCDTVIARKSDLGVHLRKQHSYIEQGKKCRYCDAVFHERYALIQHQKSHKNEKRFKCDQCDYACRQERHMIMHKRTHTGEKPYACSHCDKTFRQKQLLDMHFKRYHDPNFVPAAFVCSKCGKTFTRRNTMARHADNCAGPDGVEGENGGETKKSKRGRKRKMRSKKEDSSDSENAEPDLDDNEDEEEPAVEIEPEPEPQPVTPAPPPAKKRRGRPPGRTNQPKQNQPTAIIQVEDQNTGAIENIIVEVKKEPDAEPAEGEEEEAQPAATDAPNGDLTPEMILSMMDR
Assay: EMSA, competition
Conditions: LightShift Chemiluminescent RNA EMSA Kit (20158) and Pierce Magnetic RNA-Protein Pull-down Kit (20164) protocols; buffer, salt, pH and temperature not stated

“TTTACAGCGGTGAGGACCACCAAGGGGAGCTAAAATTCGAATGTAGGGAACAGACGATTAACAAGTTAGTTTCAGAATGAAAGACTCGAGTGTAAGAATTCAATGGGATAATTCCTGTAAAGCGTTTAGTACAGTAAAGAGCGAAGGGAAATTCTGAATAAAAGGCAGACACTATTTTAGGATTTGGCCTTCCCCG (double strand) [RAB5A-set3 promoter DNA probe (196 bp)]” was tested, and the binding was “binds”.
